From paper PMC6987189, “Native aggregation is a common feature among triosephosphate isomerases of different species” (Scientific Reports, 2020)
Several values for one entry are separate records, joined by “and”; a condition that tells them apart may be missing. Identical values can stand only once.

Tests used:
[1] = target: the molecule itself; experiment: native gel or EMSA; clear native electrophoresis (CN-PAGE), normal polarity (cathode-anode), 4-10% gradient gels, HEPES/imidazole pH 7.0 (40.0/15.3, 88.9/34.0 or 133.2/50 mM in the gel), 150 V, 4 °C, 5 h, ten micrograms of purified enzyme; masses from ferritin and albumin markers, means of the gel conditions; also after 10 mM DTT; dimers to higher aggregates
[2] = target: the molecule itself; experiment: native gel or EMSA; clear native electrophoresis (CN-PAGE), inverse polarity (anode-cathode), 4-10% gradient gels, HEPES/imidazole pH 7.0, 150 V, 4 °C, 5 h, ten micrograms of purified enzyme; no mass markers; dimers to higher aggregates

Row | Protein | stoichiometry N [1] | binding result [2]
1 | Thermus thermophilus triosephosphate isomerase (enzyme, UniProt Q5SJR1 1-250, looked up, gene cloned into pET-3aHIS; also called TtTIM; Tt; source: E. coli Bl21 (DE3)-p-Lys S, purified (ammonium sulphate, Butyl-650M, Source 15Q)) MRRVLVAGNWKMHKTPSEARVWFAELKRLLPPLQSEAAVLPAFPILPVAKEVLAETQVGYGAQDVSAHKEGAYTGEVSARMLSDLGCRYAIVGHSERRRYHGETDALVAEKAKRLLEEGITPILCVGEPLEVREKGEAVPYTLRQLRGSLEGVEPPGPEALVIAYEPVWAIGTGKNATPEDAEAMHQAIRKALSERYGEAFASRVRILYGGSVNPKNFADLLSMPNVDGGLVGGASLELESFLALLRIAG | 9 dimers in the aggregate | 
2 | Taenia solium triosephosphate isomerase (enzyme, UniProt Q9GTX8 1-250, looked up, triosephosphate isomerase (TIM), Taenia solium; gene cloned into pRSET; also called TsTIM; Ts; source: E. coli Bl21 (DE3)-p-Lys S, purified (ammonium sulphate, Butyl-650M, Source 15Q)) MTRKLFVGGNWKMNGSYSHINTFFDTLQKADTDPNADIVIGVPACYLKYAQDKAPKGIKIAAENCYKVGSGAFTGEISTEMIKDCGCEWVILGHSERRHIFGESNELIGEKVKHALDSGLNVIPCIGELLSEREAGKTNDVCFAQMDAIAKNVPSKEAWDKVVIAYEPVWAIGTGKTATPAQAQEVHKVVRDWIRKHVDAGIADKVRILYGGSVTASNAKDLGTQPDVDGFLVGGASLKPDFITIINARR | 11 dimers in the aggregate and 8.5 dimers in the aggregate | 
3 | Trypanosoma cruzi triosephosphate isomerase (enzyme, UniProt P52270 1-251, looked up, triosephosphate isomerase (TIM), Trypanosoma cruzi; gene cloned into pET-3a; the aggregates are counted in dimers; also called TcTIM; Tc; source: E. coli Bl21 (DE3)-p-Lys S, purified (SP Sepharose fast flow, Butyl toyopearl, ammonium sulphate precipitation)) MASKPQPIAAANWKCNGSESLLVPLIETLNAATFDHDVQCVVAPTFLHIPMTKARLTNPKFQIAAQNAITRSGAFTGEVSLQILKDYGISWVVLGHSERRLYYGETNEIVAEKVAQACAAGFHVIVCVGETNEEREAGRTAAVVLTQLAAVAQKLSKEAWSRVVIAYEPVWAIGTGKVATPQQAQEVHELLRRWVRSKLGTDIAAQLRILYGGSVTAKNARTLYQMRDINGFLVGGASLKPEFVEIIEATK |  | binds
4 | Leishmania mexicana triosephosphate isomerase (enzyme, UniProt P48499 1-251, looked up, triosephosphate isomerase (TIM), Leishmania mexicana; gene cloned into pET-3aHIS; also called LmTIM; Lm; source: E. coli Bl21 (DE3)-p-Lys S, purified (ammonium sulphate, Butyl-650M, Source 15Q)) MSAKPQPIAAANWKCNGTTASIEKLVQVFNEHTISHDVQCVVAPTFVHIPLVQAKLRNPKYVISAENAIAKSGAFTGEVSMPILKDIGVHWVILGHSERRTYYGETDEIVAQKVSEACKQGFMVIACIGETLQQREANQTAKVVLSQTSAIAAKLTKDAWNQVVLAYEPVWAIGTGKVATPEQAQEVHLLLRKWVSENIGTDVAAKLRILYGGSVNAANAATLYAKPDINGFLVGGASLKPEFRDIIDATR |  | binds
